Assay results taken from paper PMC4323994.
Where no end group is shown, it is not given here.

Key:
Experiment in all cases: ELISA
[1] = target: HLA-DR molecule, DRB1*0101 (human)
[2] = target: HLA-DR molecule, DRB1*1501 (human)
[3] = target: HLA-DR molecule, DRB1*0701 (human)

IC50 [1]	IC50 [2]	IC50 [3]	Binder
< 2000 nM	85100 nM	< 2000 nM	GKQLYNVEATSYALLALLQLKDFD (also: amino and carboxyl ends blocked) [C3d_(223–246)]
365 nM			GKQLYNVEATSYALL (also: amino and carboxyl ends blocked) [C3d_(223–237) wild type peptide (sequence overlapping the P28 peptide segment and C3d_(223–246))]
5630 nM	> 100000 nM	2450 nM	QATFMVFQALAQYQKDAP (also: amino and carboxyl ends blocked) [C3d_(269–286)]
